From patent US20040253612A1 come the findings set out here.

Assay [1] deals with 33 amino acid myc-epitope peptide coded for by RNA124. Nature of the assay: immunoprecipitation of myc-epitope peptide compared with β-globin translation product.
The target is the same in assay [2]. In words: immunoprecipitation of in vitro translated peptide, lane 4 (dilution buffer wash).
Assay [3] addresses c-myc monoclonal antibody 9E10. Nature of the assay: immunoprecipitation with 9E10 and protein A-sepharose, acetic acid elution.
Assay [4] deals with c-myc monoclonal antibody 9E10. In words: competitive immunoprecipitation, 35S-labeled fusion, competitor unlabeled synthetic myc peptide.

Chain of 33 amino acid myc-epitope peptide coded for by RNA124 (peptide, as listed by the source): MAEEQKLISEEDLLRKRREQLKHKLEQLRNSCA

c-myc monoclonal antibody 9E10 registered a purification (fold) against β-globin protein in assay [1] above 100 fold. This substance had a percent of the total TCA precipitable counts isolated in assay [2] of 83%.
The substance “wild type c-myc fusion construct (peptide)” gave a percentage bound to the anti-myc antibody in assay [3] of 35%. Besides, the percent bound in the presence of unlabeled myc peptide in assay [4] was determined as 9%.
